Source: PMC2946933

Target: Hfq K56A K56A (UniProt P0A6X3)
Test: SPR
Details: EMSA: 50 mM Tris-HCl pH 7.5, 100 mM KCl, 10 mM MgCl2, room temperature, SPR: same buffer, 25 C, Tb footprinting: 50 mM Tris-HCl pH 8.0, 100 mM NaCl

Work on “GCAGCGUUACAUUCCCAUCCACUGGGGAAAGACGCGGCGCUGAUUGGUGAAGUGGUGGAACGUAAAGGUGUUCGUCUUGCCGGUCUGUAUGGCGUGAAACGAACCCUCGAUUUACCACACGCCGAACCGCUUCCGCGUAUAUGCUAAUAAAAUUCUAAAUCUCCUAUAGUUAGUCAAUGACCUUUUGCACCGCUUUGCGGUGCUUUCCUGGAAGAACAAAAUGUCAUAUACACCGAUGAGUGAUCUCGGACAACAAGGGUUGUUCGACAUCACUCGGACAAAUAUUGGAUCCGCUCGG [fhlA220 mRNA]” yielded a Kd of 3 nM.
